Data from US20220387556A1, “USE OF THE GDF-5 MUTANT FOR THE TREATMENT OF PAIN AND CARTILAGE DESTRUCTION” (Merck Patent GmbH, priority 2019, published 2022).
Read-outs that look alike come from different tables or passages of the source.

Columns and labels:
[1] = target: T1, BMPR-IB (Homo sapiens, UniProt O00238); conditions: in vitro; cited from earlier work
[2] = target: T1, BMPR-IB; test: in vitro binding affinity for BMPR-IB
Text: This can be achieved by specific substitutions of one or more amino acid residues relating to a BMPR-IB and/or BMPR-IA binding site in the amino acid sequence of a GDF-5 related protein.
The binding affinity of GDF-5 related proteins having specific substitutions is compared to the binding affinity of human wild-type GDF-5 related protein, in particular human wild-type GDF-5.

[3] = target: BMPR-IA (Homo sapiens, UniProt P36894); conditions: in vitro; cited from earlier work
Sequence of BMPR-IA (P36894 24-532): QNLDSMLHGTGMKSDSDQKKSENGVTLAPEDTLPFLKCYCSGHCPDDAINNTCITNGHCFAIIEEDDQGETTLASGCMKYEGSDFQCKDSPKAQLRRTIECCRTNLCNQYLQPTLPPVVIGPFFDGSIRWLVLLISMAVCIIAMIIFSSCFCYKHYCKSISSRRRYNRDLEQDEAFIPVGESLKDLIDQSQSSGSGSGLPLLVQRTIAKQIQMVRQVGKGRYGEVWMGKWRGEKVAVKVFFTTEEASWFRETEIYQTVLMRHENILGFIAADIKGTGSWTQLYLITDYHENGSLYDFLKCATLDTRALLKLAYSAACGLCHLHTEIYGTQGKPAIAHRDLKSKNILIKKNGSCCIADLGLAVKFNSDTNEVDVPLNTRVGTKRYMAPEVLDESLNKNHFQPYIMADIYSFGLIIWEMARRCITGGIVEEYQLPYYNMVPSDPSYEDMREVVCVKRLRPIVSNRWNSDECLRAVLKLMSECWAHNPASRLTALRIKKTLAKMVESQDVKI

[4] = tested on: OA patients; conditions: cited from earlier work
[5] = tested on: primary human meniscus cells; test: NGF stimulated PGE2 release in primary human meniscus cells; type: cell-based; conditions: 10 ng/ml rhNGF, 2 days; 0.1 μM Dexamethasone, 0.1 μM Triamcinolone, 375 ng/ml anti-betaNGF antibody, 300 ng/ml R399E
Method: Primary meniscus cells from total knee replacement surgeries were freshly prepared one day post-surgery within the frame of an ethical permission. First, skin and muscle were removed to isolate the menisci. The menisci were transferred into a 10 cm dish filled with HAM's F12+1% P/S+1% Amphotericin B. The tissue was cut into small pieces of approximately 3×3 mm and transferred into a sterile beaker for digestion. Digestion was performed for 16 h in 50 ml of a 0.4% Collagenase in HAM's F12+1% P/S+1% Amphotericin solution at 37° C., 7.5% CO2 under constant stirring. After 16 h the solution was pipetted through a 100 μm filter followed by a 40 μm filter and then centrifuged for 5 min at 1400 g. The remaining pellet, containing the cells was resuspended in 20 ml of HAM's F12+1% P/S+1% Amphotericin+10% FCS. Cell number was counted, and cell viability was determined. Finally, 10,000 cells per well were seeded in a 96 well plate. Cells were cultivated up to 1 week to reach confluency. In between medium was exchanged once. […] The effect of the individual compounds was compared to cells which were stimulated with rhNGF only. After 2 days incubation, the supernatant was removed for determination of Prostaglandin E2 (PGE2) in the medium.

[6] = tested on: rabbit ACLT+pMx OA model; test: rabbit ACLT+pMx OA model, static incapacitance test, comparison with Triamcinolone and anti-NGF-antibody (KK-rabbit-17-01); type: in vivo, New Zealand white (NZW) rabbits
Method: Baseline incapacitance measurement was made 2 times prior to surgery. OA was induced by ACLT+pMx knee surgery in rabbits in the right knee joint in week 0. […] Weight bearing was measured using a contact-free static incapacitance measurement whereby plates measure pressure put on the operated and injected right hindlimb in comparison to the left unoperated hindlimb. Data are percent weight put on the right over the left hindlimb, whereby 50% corresponds to equal loading of both legs and 0% to load on the unoperated left limb only. Effect size was compared to clinically effective Triamcinolone treatment. 1.41 mg Triamcinolone correspond to human equivalent dose calculation based on metabolic body weight, synovial fluid volume and cartilage surface area.
Baseline incapacitance measurement was made 2 times prior to surgery. OA was induced by ACLT+pMx knee surgery in rabbits in the right knee joint in week 0. […] Weight bearing was measured using a contact-free static incapacitance measurement whereby plates measure pressure put on the operated and injected right hindlimb in comparison to the left unoperated hindlimb. Data are percent weight put on the right over the left hindlimb, whereby 50% corresponds to equal loading of both legs and 0% to load on the unoperated left limb only. […]

T1 sequence (O00238 14-502): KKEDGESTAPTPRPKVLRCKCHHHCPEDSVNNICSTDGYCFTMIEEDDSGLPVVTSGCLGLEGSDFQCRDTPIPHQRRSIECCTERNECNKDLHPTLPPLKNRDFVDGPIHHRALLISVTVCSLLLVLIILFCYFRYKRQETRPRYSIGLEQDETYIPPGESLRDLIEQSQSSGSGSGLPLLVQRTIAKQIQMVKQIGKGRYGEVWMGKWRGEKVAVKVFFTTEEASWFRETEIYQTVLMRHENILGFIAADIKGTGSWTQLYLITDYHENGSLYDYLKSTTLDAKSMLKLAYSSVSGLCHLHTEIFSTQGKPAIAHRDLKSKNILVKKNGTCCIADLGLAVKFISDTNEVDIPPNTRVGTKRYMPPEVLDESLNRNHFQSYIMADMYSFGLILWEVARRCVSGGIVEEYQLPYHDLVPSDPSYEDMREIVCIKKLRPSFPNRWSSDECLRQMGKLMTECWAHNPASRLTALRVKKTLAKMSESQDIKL

Wild-type GDF-5: morphogen, also known as bone morphogenetic protein-14 (BMP-14) or cartilage-derived morphogenetic protein-1 (CDMP-1)
Kd [1]: 0.008 to 0.027 nM | fold higher affinity for BMPR-IB as compared with BMPR-IA [2]: 40- to 120 fold | Kd [3]: 1 to 1.1 nM

tanezumab: anti-NGF (nerve growth factor) antibody (tanezumab, Pfizer) under clinical development for OA
incidence of RPOA overall ([4]; tanezumab 2.5 mg arm): 3.2% | incidence of RPOA overall ([4]; tanezumab 5 mg arm): 6.3%

C[C@]12C=CC(=O)C=C1CC[C@H]1[C@@H]3C[C@@H](O)[C@](O)(C(=O)CO)[C@@]3(C)C[C@H](O)[C@@]12F [Triamcinolone]
rhNGF induced PGE2 in the medium [5]: significantly inhibited | symptomatic effect compared to placebo (incapacitance) ([6]; 1.41 mg IA in week 1, week 2 post surgery): −11.6% | effect on pain (incapacitance) ([6]; 1.41 mg IA once in week 1, 6 hours after injection): significant effect on pain
